In patent publication CN116472284A:

How the values were obtained:
[1] = molecular target: SARS-CoV-2 spike ectodomain, prefusion-stabilised trimer (刺突 S2P) (SARS-CoV-2); test: SPR, captured spike S2P
[2] = molecular target: SARS-CoV-2 spike ectodomain, prefusion-stabilised trimer (刺突 S2P) (SARS-CoV-2); test: SPR, captured spike S2P, biphasic dissociation, fast phase kd1
[3] = molecular target: SARS-CoV-2 spike ectodomain, prefusion-stabilised trimer (刺突 S2P) (SARS-CoV-2); test: SPR, captured spike S2P, biphasic dissociation, slow phase kd2
[4] = molecular target: SARS-CoV-2 spike ectodomain, prefusion-stabilised trimer (刺突 S2P) (SARS-CoV-2); test: binding kinetics (SPR), Fig. 6A
[5] = molecular target: SARS-CoV-2 spike ectodomain, prefusion-stabilised trimer (刺突 S2P) (SARS-CoV-2)
[6] = molecular target: SARS-CoV-2 spike ectodomain, prefusion-stabilised trimer (刺突 S2P) (SARS-CoV-2); remark: listed apart in the source

Binder | fold gain in KD against monovalent Nb6 [1] [fold] | koff [2] [s⁻¹] | koff [3] [s⁻¹] | Kd [4] [nM] | IC50 [5] [nM] | Kd [1] [nM] | koff [1] [s⁻¹] | EC50 [6] [nM]
Nb6-bi (bivalent Nb6 with a 15 amino acid linker) (VHH) QVQLVESGGGLVQAGGSLRLSCAASGIIFGRNAMGWYRQAPGKERELVAGITRRGSITYYADSVKGRFTISRDNAKNTVYLQMNSLKPEDTAVYYCAADPASPAPGDYWGQGTQVTVSSGGGGSGGGGSGGGGSQVQLVESGGGLVQAGGSLRLSCAASGIIFGRNAMGWYRQAPGKERELVAGITRRGSITYYADSVKGRFTISRDNAKNTVYLQMNSLKPEDTAVYYCAADPASPAPGDYWGQGTQVTVSS | 750 | 0.027 | 0.00031 | – | – | – | – | –
Nb6 (VHH) VHH: QVQLVESGGGLVQAGGSLRLSCAASGIIFGRNAMGWYRQAPGKERELVAGITRRGSITYYADSVKGRFTISRDNAKNTVYLQMNSLKPEDTAVYYCAADPASPAPGDYWGQGTQVTVSS | – | – | – | 210 | 370 | 210 | 0.056 | 359
